Positions count from the first letter of the chain named.
T1: human MerTK endogenously expressed on cells (SK-MEL-5 cells; human macrophages) (human, UniProt Q12866 21-999)
T1 construct: also called MerTK on SK-MEL-5
T1 sequence: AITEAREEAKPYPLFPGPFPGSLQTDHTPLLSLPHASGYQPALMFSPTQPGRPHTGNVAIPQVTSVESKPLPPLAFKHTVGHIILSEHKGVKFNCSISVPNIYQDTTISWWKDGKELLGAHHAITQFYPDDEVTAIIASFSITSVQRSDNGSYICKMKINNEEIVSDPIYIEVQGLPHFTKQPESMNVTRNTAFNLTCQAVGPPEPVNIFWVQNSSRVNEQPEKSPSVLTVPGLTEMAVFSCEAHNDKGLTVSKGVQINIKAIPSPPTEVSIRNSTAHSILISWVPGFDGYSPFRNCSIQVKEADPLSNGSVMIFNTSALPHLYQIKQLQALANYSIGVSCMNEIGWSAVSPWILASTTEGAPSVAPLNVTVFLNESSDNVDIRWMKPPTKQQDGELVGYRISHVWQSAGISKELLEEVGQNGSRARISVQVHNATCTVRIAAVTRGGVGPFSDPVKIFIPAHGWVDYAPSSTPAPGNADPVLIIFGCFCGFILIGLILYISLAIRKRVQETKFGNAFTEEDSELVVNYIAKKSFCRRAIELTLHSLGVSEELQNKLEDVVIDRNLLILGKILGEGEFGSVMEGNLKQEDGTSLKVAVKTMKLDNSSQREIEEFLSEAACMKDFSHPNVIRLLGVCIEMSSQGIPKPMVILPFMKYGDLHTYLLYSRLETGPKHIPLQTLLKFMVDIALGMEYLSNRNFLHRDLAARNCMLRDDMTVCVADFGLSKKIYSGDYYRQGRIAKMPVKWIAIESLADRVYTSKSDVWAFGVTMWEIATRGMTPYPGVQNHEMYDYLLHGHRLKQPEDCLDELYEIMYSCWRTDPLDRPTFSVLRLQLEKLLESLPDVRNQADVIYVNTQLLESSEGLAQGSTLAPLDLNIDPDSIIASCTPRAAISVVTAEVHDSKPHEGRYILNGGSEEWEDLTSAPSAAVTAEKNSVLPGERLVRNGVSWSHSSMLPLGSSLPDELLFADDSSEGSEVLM

B1: MTK-15 (antibody, human IgG1, V domains shown)
VH: QIQLVQSGPELKKPGETVKISCKASGYTFTNYGVHWVKQAPGKGLKWMGWINTYTGEPTYADDFKGRFAFSLETSASTAYLQINNLKNEDMATYFCARGNRYAYMDYWGQGTSVTVSS
VL: QIVLSQSPAILSASPGEKVTMTCRASSSVSYMHWYQQKSGSSPKPWIYATSNLASGVPARFSGSGSGTSYSLTISRVEAEDAATYYCQQWSSNPRTFGGGTKLEIK
B2: MTK-06 (antibody, human IgG1, V domains shown)
VH: QIQLVQSGPELKKPGETVKISCKASGYTFTNYGMNWVKQAPGKGLKWMGWINTNTGEPTYAEEFKGRFAFSLETSASTAYLQINNLKNEDTATYFCARYYNYWYFDVWGAGTTVTVSS
VL: B1 VL with S39P, N93K, R95P
B3: MTK-13 (antibody, human IgG1, V domains shown)
VH: DVQLQESGPGLVKPSQSLSLTCSVTGYSITSGYYWNWIRQFPGNKLEWMGNIDYDGSNKYNPSLKNRISITRDTSKNHFFLKLNSVTPEDTATYFCARDGGNYRSFAYWGQGTLVTVSA
VL: QIVLTQSPPIMSASPGEKVTITCSASSSVSYMYWFQQKPGTSPKLWIYSTFNLASGVPARFSGSGSGTSYSLTISRMEAEDVATYYCQQRSSYPFTFGSGTKLEIK
B4: MTK-10 (antibody, human IgG1, V domains shown)
VH: QVTLKESGPGILQPSQTLSLTCSFSGFSLTTSGMGVGWIRQPSGKGLEWLAHIWSDDDKRSNPALKSRLTISQDSSTNQVFLKIASVDTADSATYYCSHLTPVREFAYWGPGTLVTVSE
VL: DIQMTQTTSSLSASLGDRVTISCSASQGISNYLNWFQQKPDGTVKLLIYYTSRLHSGVPSRFSGSGSGTDFSLTISNLEPEDIATYYCQQYTKLPYTFGGGTKLEIK
B5: MTK-16 (antibody, human IgG1, V domains shown)
VH: LIQLVQSGPELKKPGETVKISCKASGYTFTNHGMNWVKQDPGKGLKWMGWINTYTGEPTYADDFKGRFVFSMETSASAAFLQINNLKNEDTATYFCARKGVTAARYFDYWGQGTTLTVSS
VL: DIVMTQSPKFMSTSVGDRVSITCKASQNVRTAVAWYKKKPGQSPKALINLASNRHTGVPDRFTGSGSGTDFTLTISNVQSEDLADYFCLQHWNYPLTFGGGTKLEIK

Target: T1, human MerTK endogenously expressed on …
Assay: flow cytometry on SK-MEL-5 cells (endogenous human MerTK), APC anti-human kappa detection, MFI
Procedure: To determine whether recombinant anti-human MerTK antibodies of the present disclosure bind to human MerTK endogenously expressed on SK-MEL-5 cells and to CHO cells overexpressing mouse MerTK (CHO-muMerTK OE cells), the following experiments were performed. SK-MEL-5 cells and CHO-muMerTK OE cells were plated at 40,000 cells/well. Anti-MerTK antibodies were titrated to a final concentration range of between 66.6 nM to 4 pM and then added to the cells. After 30 min on ice, cells were washed and then stained with APC-conjugated mouse anti-human Kappa antibody (Southern Biotech Cat #9230-11, Birmingham, Ala.) and a viability die (Life Technologies) in the presence of Fc block solution on ice for 30 minutes, and then washed twice with cold FACS buffer (2% FBS in PBS). Cells were fixed with 4% paraformaldehyde in PBS. Stained cells were acquired on a BD FACS Canto II cytometer and the mean fluorescence intensity (MFI) was calculated with FlowJo software and K value was calculated with Prism software. […] A lower Kd value reflects higher binding of antibody to cells.

| EC50 (read off the curve) | Binder |
| --- | --- |
| ~0.2 nM | B1 |
| ~0.2 nM | B2 |
| ~0.6 nM | B3 |
| ~0.3 nM | B4 |
| ~2 nM | B5 |

Source: patent publication US20210261685A1 (Alector, published 2021)
